Starred links: 1 amine or outer side, 2 acyl side, 3 side chain; linkers in the order of their positions; H or OH if unused. Non-standard residues stand in square brackets, D forms with d. Residues, ends and D or L forms follow the SMILES beside them. Groups on a side chain read outwards from the residue. No end group written: not given here. *: point of attachment. N_Butyl_Phe = CCCCN([C@@H](Cc1ccccc1)C(=O)[*:2])[*:1]; C18 diacid = O=C(O)CCCCCCCCCCCCCCCCC(=O)*; X8 = O=C([C@H](CCc1nn[nH]n1)N[*:1])[*:2]; Dip = N[C@H](C(=O)O)C(c1ccccc1)c1ccccc1; γGlu = O=C(O)[C@H](CCC(=O)[*:2])N[*:1]; His(τ-Me) = Cn1cnc(C[C@H](N)C(=O)O)c1; Palmitoyl = CCCCCCCCCCCCCCCC(=O)*; Myristoyl = CCCCCCCCCCCCCC(=O)*; β3hF = N[C@H](CC(=O)O)Cc1ccccc1; NMeL = CN[C@@H](CC(C)C)C(=O)O; NMeK = CN[C@@H](CCCCN)C(=O)O; Isovaleryl = CC(C)CC(=O)*; Octanoyl = CCCCCCCC(=O)*; AEEA = NCCOCCOCC(=O)O; Propionyl = CCC(=O)*; Ahx = NCCCCCC(=O)O; βAla = NCCC(=O)O
B1: Isovaleric Acid-E-T-H-F-P-A-I-[Lys(Ahx_C14_acid)]-F-E-P-R-S-K-G-A-[(D)Lys]-NH2 (peptide)
peptide: Isovaleryl-ETHFPAIK([Ahx-Myristoyl])FEPRSKGA[dK]-NH2
SMILES: CCCCCCCCCCCCCC(=O)NCCCCCC(=O)NCCCC[C@H](NC(=O)[C@@H](NC(=O)[C@H](C)NC(=O)[C@@H]1CCCN1C(=O)[C@H](Cc1ccccc1)NC(=O)[C@H](Cc1c[nH]cn1)NC(=O)[C@@H](NC(=O)[C@H](CCC(=O)O)NC(=O)CC(C)C)[C@@H](C)O)[C@@H](C)CC)C(=O)N[C@@H](Cc1ccccc1)C(=O)N[C@@H](CCC(=O)O)C(=O)N1CCC[C@H]1C(=O)N[C@@H](CCCNC(=N)N)C(=O)N[C@@H](CO)C(=O)N[C@@H](CCCCN)C(=O)NCC(=O)N[C@@H](C)C(=O)N[C@H](CCCCN)C(N)=O
B2: Isovaleric Acid-E-T-H-F-P-A-I-[Lys(Ahx_C14_acid)]-F-E-P-R-[(D)Ser]-NH2 (peptide)
peptide: Isovaleryl-ETHFPAIK([Ahx-Myristoyl])FEPR[dS]-NH2
SMILES: CCCCCCCCCCCCCC(=O)NCCCCCC(=O)NCCCC[C@H](NC(=O)[C@@H](NC(=O)[C@H](C)NC(=O)[C@@H]1CCCN1C(=O)[C@H](Cc1ccccc1)NC(=O)[C@H](Cc1c[nH]cn1)NC(=O)[C@@H](NC(=O)[C@H](CCC(=O)O)NC(=O)CC(C)C)[C@@H](C)O)[C@@H](C)CC)C(=O)N[C@@H](Cc1ccccc1)C(=O)N[C@@H](CCC(=O)O)C(=O)N1CCC[C@H]1C(=O)N[C@@H](CCCNC(=N)N)C(=O)N[C@H](CO)C(N)=O
B3: Isovaleric Acid-E-T-H-F-P-A-I-[Lys(Ahx_C14_acid)]-F-E-P-R-S-K-G-[(D)Ala]-NH2 (peptide)
peptide: Isovaleryl-ETHFPAIK([Ahx-Myristoyl])FEPRSKG[dA]-NH2
SMILES: CCCCCCCCCCCCCC(=O)NCCCCCC(=O)NCCCC[C@H](NC(=O)[C@@H](NC(=O)[C@H](C)NC(=O)[C@@H]1CCCN1C(=O)[C@H](Cc1ccccc1)NC(=O)[C@H](Cc1c[nH]cn1)NC(=O)[C@@H](NC(=O)[C@H](CCC(=O)O)NC(=O)CC(C)C)[C@@H](C)O)[C@@H](C)CC)C(=O)N[C@@H](Cc1ccccc1)C(=O)N[C@@H](CCC(=O)O)C(=O)N1CCC[C@H]1C(=O)N[C@@H](CCCNC(=N)N)C(=O)N[C@@H](CO)C(=O)N[C@@H](CCCCN)C(=O)NCC(=O)N[C@H](C)C(N)=O

What follows are molecules tested against T1, ferroportin (Homo sapiens, UniProt Q9NP59) (assay: FPN activity assay: internalization/degradation of ferroportin-GFP in stably transfected HEK293 cells (loss of GFP fluorescence)). Details: Table 6A; read-out: FPN EC50.
T1 sequence (Q9NP59 1-571): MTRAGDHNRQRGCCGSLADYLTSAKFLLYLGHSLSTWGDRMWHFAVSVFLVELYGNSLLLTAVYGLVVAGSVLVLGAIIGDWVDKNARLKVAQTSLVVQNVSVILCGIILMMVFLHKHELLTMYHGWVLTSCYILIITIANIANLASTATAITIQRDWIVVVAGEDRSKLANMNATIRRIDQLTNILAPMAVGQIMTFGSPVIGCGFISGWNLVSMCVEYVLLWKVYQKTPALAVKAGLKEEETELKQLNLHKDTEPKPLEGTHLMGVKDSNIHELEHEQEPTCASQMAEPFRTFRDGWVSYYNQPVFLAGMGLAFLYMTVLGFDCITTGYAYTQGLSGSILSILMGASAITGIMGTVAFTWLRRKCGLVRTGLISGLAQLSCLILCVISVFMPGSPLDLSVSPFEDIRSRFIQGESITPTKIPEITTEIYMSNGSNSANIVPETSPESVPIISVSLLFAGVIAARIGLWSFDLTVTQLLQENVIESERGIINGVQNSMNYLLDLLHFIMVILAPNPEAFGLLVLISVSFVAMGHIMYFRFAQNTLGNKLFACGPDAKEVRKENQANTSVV
Assay type: cell-based
Procedure: Following internalization, the ferroporin protein is degraded.
A retro inverse peptide is a peptide with a reversed sequence in all D amino acids. An example is that Hy-Glu-Thr-His-NH2 becomes Hy-DHis-DThr-DGlu-NH2. The EC50 of these reference compounds for ferroportin internalization/degradation was determined according to the FPN activity assay described above. These peptides served as control standards.

Molecule | DC50 [nM]
CC[C@H](C)[C@H](NC(=O)[C@H](C)NC(=O)[C@@H]1CCCN1C(=O)[C@@H](NC(=O)[C@H](Cc1cn(C)cn1)NC(=O)[C@@H](NC(=O)[C@H](CCc1nn[nH]n1)NC(=O)CC(C)C)[C@@H](C)O)C(c1ccccc1)c1ccccc1)C(=O)N[C@@H](CCCCNC(C)=O)C(=O)N[C@H](CC(=O)N[C@H](CCCCN)C(N)=O)Cc1ccccc1 [compound 41] (Isovaleryl-[X8]T[His(τ-Me)][Dip]PAIK(Ac)[β3hF][dK]-NH2) | > 3000
CCCCCCCCCCCCCCCC(=O)NCCCCCC(=O)NCCCC[C@H](NC(=O)C[C@H](Cc1ccccc1)NC(=O)[C@@H](CCCCN)NC(=O)[C@@H](NC(=O)[C@H](C)NC(=O)[C@@H]1CCCN1C(=O)[C@@H](NC(=O)[C@H](Cc1c[nH]cn1)NC(=O)[C@@H](NC(=O)[C@H](CCC(=O)O)NC(=O)CC(C)C)[C@@H](C)O)C(c1ccccc1)c1ccccc1)[C@@H](C)CC)C(N)=O [compound 3] (Isovaleryl-ETH[Dip]PAI[dK][β3hF]K([Ahx-Palmitoyl])-NH2) | 24.9
CCCCCCCCCCCCCCCC(=O)NCCC(=O)NCCC(=O)NCCCC[C@H](NC(=O)[C@@H](NC(=O)[C@H](C)NC(=O)[C@@H]1CCCN1C(=O)[C@@H](NC(=O)[C@H](Cc1c[nH]cn1)NC(=O)[C@@H](NC(=O)[C@H](CCC(=O)O)NC(=O)CC(C)C)[C@@H](C)O)C(c1ccccc1)c1ccccc1)[C@@H](C)CC)C(=O)N[C@H](CC(N)=O)Cc1ccccc1 [compound 99] (Isovaleryl-ETH[Dip]PAIK([βAla-βAla-Palmitoyl])[β3hF]-NH2) | 103
CC[C@H](C)[C@H](NC(=O)[C@@H](NC(=O)[C@@H]1CCCN1C(=O)[C@@H](NC(=O)[C@H](Cc1c[nH]cn1)NC(=O)[C@@H](NC(=O)[C@H](CCC(=O)O)NC(=O)CNCC(=O)O)[C@@H](C)O)C(c1ccccc1)c1ccccc1)[C@@H](C)CC)C(=O)N[C@@H](CCCCNC(C)=O)C(=O)N[C@H](CC(N)=O)Cc1ccccc1 [compound 71] | > 5000
CCCCCCCC(=O)NCCCCCC(=O)NCCCC[C@H](NC(=O)[C@@H](NC(=O)[C@H](C)NC(=O)[C@@H]1CCCN1C(=O)[C@@H](NC(=O)[C@H](Cc1c[nH]cn1)NC(=O)[C@@H](NC(=O)[C@H](CCC(=O)O)NC(=O)CC(C)C)[C@@H](C)O)C(c1ccccc1)c1ccccc1)[C@@H](C)CC)C(=O)N[C@H](CC(N)=O)Cc1ccccc1 [compound 103] (Isovaleryl-ETH[Dip]PAIK([Ahx-Octanoyl])[β3hF]-NH2) | 162
CCCCCCCCCCCCCCCC(=O)NCCCCCC(=O)NCCCC[C@H](NC(=O)[C@@H](NC(=O)[C@H](CC(C)C)NC(=O)[C@@H]1CCCN1C(=O)[C@@H](NC(=O)[C@H](Cc1c[nH]cn1)NC(=O)[C@@H](NC(=O)[C@H](CCC(=O)O)NC(=O)CC(C)C)[C@@H](C)O)C(c1ccccc1)c1ccccc1)[C@@H](C)CC)C(=O)N(C)[C@@H](CC(C)C)C(N)=O [compound 140] (Isovaleryl-ETH[Dip]PLIK([Ahx-Palmitoyl])[NMeL]-NH2) | 32.4

Same assay, conditions: ferroportin-GFP HEK293 cells, compound incubated at least 18 hours; read-out: FPN IC50

Molecule | DC50 [nM]
CC(C)CC(=O)N[C@@H](CCC(=O)O)C(=O)N[C@H](C(=O)N[C@@H](Cc1c[nH]cn1)C(=O)N[C@H](C(=O)N1CCC[C@H]1C(=O)N[C@H](CCCCNC(=O)COCCOCCNC(=O)COCCOCCNC(=O)CCCCCNC(=O)CCCCCCCCCCCCCCCCC(=O)O)C(=O)N[C@H](CC(N)=O)Cc1ccccc1)C(c1ccccc1)c1ccccc1)[C@@H](C)O [compound 214] | 86.8

Each molecule was assayed against T2, human ferroportin (SLC40A1) fused in frame with GFP, stably expressed in HEK293 cells (human, UniProt Q9NP59 1-571) (assay: cell-based or functional assay). Details: not given.
T2 sequence (looked up): T1 sequence (Q9NP59 1-571)

Molecule | FPN IC50 [nM]
Cyclohexanoic_Acid-LTH[Dip]PK([Ahx-Palmitoyl])[N_Butyl_Phe] [Cyclohexanoic_Acid-L-T-H-[Dpa]-P-[Lys(Ahx_Palm)]-N_Butyl_Phe] | 3380
Isovaleryl-LTH[Dip]PK([AEEA-AEEA-γGlu-C18 diacid])[N_Ethyl_Nap] [Isovaleric Acid-L-T-H-[Dpa]-P-[Lys(1PEG2_1PEG2_IsoGlu_C18_Diacid)]-N_Ethyl_Nap] | 1440
Isovaleryl-ETHFPAIK([γGlu-Myristoyl])FEPRSKG[dA]-NH2 [Isovaleric Acid-E-T-H-F-P-A-I-[Lys(IsoGlu_C14_acid)]-F-E-P-R-S-K-G-[(D)Ala]-NH2] | 5730
B1 | 1160
Isovaleryl-ETHFPAIK([γGlu-C10 acid])FEPRSKGAK-NH2 [Isovaleric Acid-E-T-H-F-P-A-I-[Lys(IsoGlu_C10_acid)]-F-E-P-R-S-K-G-A-K-NH2] | 3310
Octanoic_Acid-LTH[Dip]PK([Ahx-Palmitoyl])-N_Butyl_Phe [Octanoic_Acid-L-T-H-[Dpa]-P-[Lys(Ahx_Palm)]-N_Butyl_Phe] | 1020
Isovaleryl-ETHFPAIK([γGlu-Myristoyl])FEPR[dS]-NH2 [Isovaleric Acid-E-T-H-F-P-A-I-[Lys(IsoGlu_C14_acid)]-F-E-P-R-[(D)Ser]-NH2] | 3680
Isovaleryl-ETHFPAIK([γGlu-C12 acid])FEPRSKGAK-NH2 [Isovaleric Acid-E-T-H-F-P-A-I-[Lys(IsoGlu_C12_acid)]-F-E-P-R-S-K-G-A-K-NH2] | 4490
B2 | 1160
B3 | 1070
Isovaleryl-LTH[Dip]PK([βAla-Palmitoyl])[N_Butyl_Phe] [Isovaleric Acid-L-T-H-[Dpa]-P-[Lys(bAla_Palm)]-N_Butyl_Phe] | 469
Isovaleryl-[meL]TH[Dip]P[NMeK]([Ahx-Palmitoyl])-N_Butyl_Phe [Isovaleric Acid-meL-T-H-[Dpa]-P-NMe[Lys(Ahx_Palm)]-N_Butyl_Phe] | 71
Isovaleryl-LTH[Dip]P[NMeK]([Ahx-Palmitoyl])[N_Butyl_Phe] [Isovaleric Acid-L-T-H-[Dpa]-P-NMe[Lys(Ahx_Palm)]-N_Butyl_Phe] | 62.6
Isovaleryl-LTH[Dip]K([Ahx-Palmitoyl])[N_Butyl_Phe] [Isovaleric Acid-L-T-H-[Dpa]-[Lys(Ahx_Palm)]-N_Butyl_Phe] | > 3000
Propionyl-LTH[Dip]PK([Ahx-Palmitoyl])[N_Butyl_Phe] [[Propionic_acid]-L-T-H-[Dpa]-P-[Lys(Ahx_Palm)]-N_Butyl_Phe] | 218
Isovaleryl-LTH[Dip]PK([γGlu-Palmitoyl])[N_Butyl_Phe] [Isovaleric Acid-L-T-H-[Dpa]-P-[Lys(IsoGlu_Palm)]-N_Butyl_Phe] | 222
Cyclohexanecarboxylic_Acid-LTH[Dip]PK([Ahx-Palmitoyl])[N_Butyl_Phe] [Cyclohexanecarboxylic_Acid-L-T-H-[Dpa]-P-[Lys(Ahx_Palm)]-N_Butyl_Phe] | 3300
Isovaleryl-ETHFPAIK([γGlu-Myristoyl])FEPRSKGA[dK]-NH2 [Isovaleric Acid-E-T-H-F-P-A-I-[Lys(IsoGlu_C14_acid)]-F-E-P-R-S-K-G-A-[(D)Lys]-NH2] | 718
Isovaleryl-ETHFPAIK([γGlu-Myristoyl])FEPRSKGAK-NH2 [Isovaleric Acid-E-T-H-F-P-A-I-[Lys(IsoGlu_C14_acid)]-F-E-P-R-S-K-G-A-K-NH2] | 822
Isovaleryl-LTH[Dip]P[N_Butyl_Phe] [Isovaleric Acid-L-T-H-[Dpa]-P-N_Butyl_Phe] | 1040
Heptanoic_Acid-LTH[Dip]PK([Ahx-Palmitoyl])[N_Butyl_Phe] [Heptanoic_Acid-L-T-H-[Dpa]-P-[Lys(Ahx_Palm)]-N_Butyl_Phe] | > 3000

Reference: patent US20240066131A1 (Protagonist Therapeutics, Inc., priority 2020, published 2024)
